Sequences and labels used below:
T1: β-catenin (UniProt P35222 1-781, limits assumed)
T1 construct: also called beta-catenin
T1 sequence (looked up): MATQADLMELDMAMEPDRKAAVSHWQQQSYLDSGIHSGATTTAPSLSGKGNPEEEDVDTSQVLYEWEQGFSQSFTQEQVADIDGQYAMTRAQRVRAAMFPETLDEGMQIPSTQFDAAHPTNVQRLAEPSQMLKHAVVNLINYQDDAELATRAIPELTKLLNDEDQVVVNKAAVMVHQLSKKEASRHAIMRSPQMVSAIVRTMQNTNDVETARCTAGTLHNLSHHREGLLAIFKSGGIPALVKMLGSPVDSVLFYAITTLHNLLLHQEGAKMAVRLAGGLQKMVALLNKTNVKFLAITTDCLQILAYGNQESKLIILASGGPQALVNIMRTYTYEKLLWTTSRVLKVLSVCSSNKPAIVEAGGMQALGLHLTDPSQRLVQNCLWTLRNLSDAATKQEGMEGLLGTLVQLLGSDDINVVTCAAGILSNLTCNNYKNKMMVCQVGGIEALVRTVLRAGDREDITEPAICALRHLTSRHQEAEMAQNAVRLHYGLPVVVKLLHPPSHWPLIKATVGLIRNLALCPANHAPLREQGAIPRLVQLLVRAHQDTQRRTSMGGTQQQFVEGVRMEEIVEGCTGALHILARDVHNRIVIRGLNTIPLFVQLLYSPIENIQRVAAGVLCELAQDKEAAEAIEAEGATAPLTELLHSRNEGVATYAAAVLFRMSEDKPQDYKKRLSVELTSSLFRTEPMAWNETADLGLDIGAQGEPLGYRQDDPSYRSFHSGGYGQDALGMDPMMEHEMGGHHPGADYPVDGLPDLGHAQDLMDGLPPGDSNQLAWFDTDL

B1: SEQ ID NO: 21 (peptide)
peptide: Ac-AQTAR[S5]IQR[S5]L[2Nal]-NH2
modifications: staple 6-10
SMILES: CC[C@H](C)[C@@H]1NC(=O)[C@@](C)(NC(=O)[C@H](CCCNC(=N)N)NC(=O)[C@H](C)NC(=O)[C@@H](NC(=O)[C@H](CCC(N)=O)NC(=O)[C@H](C)NC(C)=O)[C@@H](C)O)CCCC=CCCC[C@@](C)(C(=O)N[C@@H](CC(C)C)C(=O)N[C@@H](Cc2ccc3ccccc3c2)C(N)=O)NC(=O)[C@H](CCCNC(=N)N)NC(=O)[C@H](CCC(N)=O)NC1=O
B2: SEQ ID NO: 114 (peptide)
peptide: [Cba][dNMeQ]TLR[S5]IQR[S5][Cba][2Nal]
modifications: staple 6-10; not fully specified (N-terminus, C-terminus); printed as (CBA)(N-methylQ)TLRXIQRX(CBA)(2-Nal), X/X stapled, (S) α-methyl, N-terminal Ac, C-terminal NH2

Bridges are numbered along the chain shown (N, C = ends). Primed or numbered codes have the meaning given here. Where no end group is shown, it is not given here. [ ]: non-standard residue; d: D form. S5′ = (S)-2-(4'-pentenyl)alanine, olefinic stapling residue closed by ring-closing metathesis; 2Nal = N[C@@H](Cc1ccc2ccccc2c1)C(=O)O; dNMeQ = CN[C@H](CCC(N)=O)C(=O)O; Cba = N[C@@H](CC1CCC1)C(=O)O; S5 = C=CCCC[C@](C)(N)C(=O)O

For orientation: IC50 means the midpoint of a concentration-inhibition curve. Higher therefore signals a need for much substance.

This assay has as its target T1, β-catenin. In words: ALPHA Screen (BCL9/β-catenin).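 Further: bead proximity readout with the polypeptide linked to donor beads and β-catenin fixed on acceptor beads, their binding bringing the beads close enough to emit signal.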
Description: In this assay, a polypeptide is conjugated to a donor bead and its target protein (i.e., β-catenin) is attached to an acceptor bead. When the two beads are in proximity due to the binding of the polypeptide to the target protein, a signal is generated and the binding affinity of the polypeptide can be quantitatively calculated. The assay may be conducted in the presence or absence of an unconjugated control polypeptide.
Molecule B1 gave an IC50 of 7.61 µM. In other words, the single-digit micromolar range.

B2 returned an IC50 of 4.9 µM.

As for Ac-LETLR[S5]IQR[S5][Cba][2Nal]-NH2 (staple 6-10) [SEQ ID NO: 109], the IC50 is 0.913 µM. Compared with the last molecule, the IC50 is about 5.4-fold lower.

In turn, Ac-LQTLR[S5]IQH[S5][Cba][2Nal]-NH2 (staple 6-10) [SEQ ID NO: 112] displayed an IC50 of 5.65 µM.

On to Ac-[Cba]QTLR[S5]IQR[S5][Cba][2Nal]-NH2 (staple 6-10) [SEQ ID NO: 113], for which half-maximal inhibition (IC50) was put at 6.99 µM.

Molecule Ac-LQTLR[S5]IQK[S5]L[2Nal]-NH2 (staple 6-10) [SEQ ID NO: 101] returned an IC50 of 10.6 µM.

The molecule Ac-LQT[dL]R[S5]IQR[S5]L[2Nal]-NH2 (staple 6-10) [SEQ ID NO: 103] gave an IC50 of 2.86 µM.

Take Ac-LQTLK[S5]IQR[S5]L[2Nal]-NH2 (staple 6-10) [SEQ ID NO: 100]: the IC50 amounted to 14.4 µM.

Ac-LQT[Cba]R[S5]IQR[S5][Cba][2Nal]-NH2 (staple 6-10) [SEQ ID NO: 115] yielded an IC50 of 4.53 µM.

Ac-LQTLR[S5]AQR[S5]A[2Nal]-NH2 (staple 6-10; not fully specified; printed as LQTLRXAQRXA(2-Nal)) [SEQ ID NO: 23]: the IC50 was 30 µM. This IC50 is about 6.6-fold higher than that of the molecule before.

As for Ac-LQTLR[S5′]IQE[S5′]L[2Nal]-NH2 (staple 6-10) [SEQ ID NO: 99], the IC50 worked out at 50 µM. This IC50 is about 1.7-fold higher than that of the molecule before.

Ac-[dL]QTIR[S5]IQR[S5]L[2Nal]-NH2 (staple 6-10) [SEQ ID NO: 102] yielded an IC50 of 6.84 µM.

As to Ac-LQTLR[S5]IQR[S5][dL][2Nal]-NH2 (staple 6-10) [SEQ ID NO: 105], the IC50 stood at 10.7 µM.

The molecule Ac-LQTLE[S5′]IQR[S5′]L[2Nal]-NH2 (staple 6-10) [SEQ ID NO: 98] returned an IC50 of 47.1 µM.

In the case of Ac-LQTAR[S5]AQR[S5]L[2Nal]-NH2 (staple 6-10; not fully specified; printed as LQTARXAQRXL(2-Nal)) [SEQ ID NO: 22], the concentration for half-maximal inhibition (IC50) came out at 11.4 µM.

Ac-LQTAR[S5]IQR[S5]L[2Nal]-NH2 (staple 6-10) [SEQ ID NO: 75] gave an IC50 of 6.29 µM.

As for Ac-LQTLR[S5]AQR[S5]L[2Nal]-NH2 (staple 6-10) [SEQ ID NO: 76], the IC50 turned out to be 8.99 µM.

The record behind these values is patent publication US20200262867A1 (WNTRX PHARMACEUTICALS, published 2020).
